Measured values: the RNAGym collection of RNA variant scans (doi:10.7554/elife.90254)

B1: LINE1-full (parent)
chain: UACGUAGGUGGUUUUCCCCUGAUAGUGCUAAGGGGGCCUGGAAGUUUGGACUGGGCAGAGCUCAACACAGCGUGGCAAAGUGGCUGUGGCUAGACUGCCUCUCUGGAUUCCUCGUCACUCAGCAGGGCAUCUCUGAGAGAAAUGCC

Variants of: B1
Test: self-cleavage, relative activity (ratio to wild type); higher = more cleavage; in vitro, sequencing; the parent is a self-cleaving ribozyme

In order of rising self-cleavage:
1. U52C U62G  0
2. G53U A57C  0.01
3. C56U U96A  0.03
4. C56U A65G  0.03
5. C56U A57G  0.04
6. U52A A65G  0.04
7. C56G A77G  0.04
8. C51G U96A  0.05
9. G55U U102C  0.06
10. G53A A59G  0.06
11. U52C A65G  0.07
12. C51G U62C  0.08
13. G55U U96C  0.08
14. U52A U91G  0.08
15. G55C A129U  0.09
16. C56U A107G  0.1
17. C51A U96A  0.11
18. G55U A142G  0.11
19. G55A U73A  0.12
20. C51U U96C  0.12
21. U52C C71A  0.13
22. U52C G55A  0.14
23. G53A U108A  0.14
24. U52A A65U  0.21
25. C56U U119C  0.21
26. C56U U134C  0.23
27. G55U C133A  0.26
28. G55A A142G  0.27
29. G53U A65U  0.27
30. U52A U87C  0.29
31. U52C A117C  0.42
32. U52A A64U  0.46
33. G54A A107G  0.47
34. G54A C145U  0.54
35. G53A A79G  0.71
36. U52A A69G  0.71
37. U52C C128A  0.71
38. G54U U115A  0.74
39. G54A U134G  0.76
40. G54A U112A  0.83
41. G54A A138G  0.84
42. G54A U130C  0.9
43. U52C G75A  0.9
44. C51U U104A  1.02
45. U52C A117G  1.04
46. G53A G74A  1.04
47. C51U A78G  1.09
48. G54A A117C  1.1
49. G54A A117U  1.1
50. U52C A141U  1.14
51. U52C G126A  1.18
52. G53U U73C  1.22
53. G53A U134A  1.23
54. U52A C113A  1.24
55. U52C A141G  1.25
56. C51U A142C  1.25
57. G53A A124U  1.28
58. C51U C145G  1.28
59. U52A U100A  1.29
60. U52A A129G  1.3
61. C51U  1.3
62. U52C G126U  1.31
63. U52G C110G  1.31
64. C51U G127A  1.35
65. U52A A141U  1.35
66. G54C A138G  1.35
67. U52A U104C  1.36
68. U52A U112C  1.43
69. U52A A142G  1.46
70. U52A A141C  1.48
71. U52A U104G  1.53
72. U52G C101U  1.55
73. U52C A107U  1.63
74. C51G  1.63
75. C51U A142G  1.7
76. U52C G82A  1.7
77. G53A A138G  1.72
78. U52C U119C  1.86
79. U52G U108C  1.94
80. G53U U81C  2
81. U52A U104A  2.03
82. U52G U109A  2.14
83. C51U A78U  2.19
